The supplement of paper PMC9112550, “Optimization of the antimicrobial peptide Bac7 by deep mutational scanning” (BMC Biology, 2022)

These sequences were tested on Escherichia coli TOP10 (assay: shrunken log2 fold change of peptide-encoding DNA abundance (4.5 h post-induction vs induction); higher = less antimicrobial activity (less host growth inhibition)). Settings: time post-induction: 4.5 h; library: site-saturation at positions 5, 18, 19, 20.
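Also: peptides expressed intracellularly from a pBAD plasmid library in pooled LB shake-flask culture, induced with 0.3% L-arabinose, DNA abundance read by NGS, three biological replicates, DESeq2 with apeglm shrinkage.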

Sequence	shrunken log2 fold change
RRIRSRPPRLPRPRPRPYWMPRP	-0.648
RRIRDRPPRLPRPRPRPVNGPRP	-0.0115
RRIRMRPPRLPRPRPRPRPWPRP	0.996
RRIRWRPPRLPRPRPRPDVKPRP	-0.26
RRIRRRPPRLPRPRPRPSDPPRP	-0.00173
RRIRPRPPRLPRPRPRPDQKPRP	-0.0552
RRIRERPPRLPRPRPRPLGQPRP	0.0127
RRIRQRPPRLPRPRPRPFCPPRP	-0.236
RRIRQRPPRLPRPRPRPFEHPRP	-0.00133
RRIRNRPPRLPRPRPRPGGPPRP	0.37
RRIRPRPPRLPRPRPRPIETPRP	0.0267
RRIRIRPPRLPRPRPRPDGSPRP	-0.189
RRIRFRPPRLPRPRPRPQKIPRP	-0.299
RRIRKRPPRLPRPRPRPPSQPRP	0.866
RRIRERPPRLPRPRPRPIEHPRP	-0.00973
RRIRKRPPRLPRPRPRPKRHPRP	0.255
RRIRSRPPRLPRPRPRPHKFPRP	0.00286
RRIRLRPPRLPRPRPRPNCGPRP	-0.0908
RRIRVRPPRLPRPRPRPVKHPRP	-0.3
RRIRTRPPRLPRPRPRPNFKPRP	-0.131
RRIRGRPPRLPRPRPRPYHEPRP	0.182
RRIRIRPPRLPRPRPRPPCIPRP	-0.0558
RRIRERPPRLPRPRPRPANVPRP	-0.0342
RRIRDRPPRLPRPRPRPNPKPRP	0.165
RRIRQRPPRLPRPRPRPWLVPRP	-0.0624

Sequence	shrunken log2 fold change
RRIRQRPPRLPRPRPRPAWDPRP	1.54
RRIRTRPPRLPRPRPRPNLVPRP	-0.149
RRIRQRPPRLPRPRPRPIQWPRP	0.34
RRIRMRPPRLPRPRPRPAYGPRP	-0.00861
RRIRDRPPRLPRPRPRPTDNPRP	-0.5
RRIRHRPPRLPRPRPRPDFDPRP	0.0484
RRIRDRPPRLPRPRPRPSEIPRP	-0.167
RRIRCRPPRLPRPRPRPLSQPRP	0.0133
RRIRHRPPRLPRPRPRPNIWPRP	0.0229
RRIRLRPPRLPRPRPRPLRHPRP	0.171
RRIRYRPPRLPRPRPRPSAAPRP	-0.222
RRIRQRPPRLPRPRPRPLWVPRP	0.221
RRIRARPPRLPRPRPRPTNPPRP	0.288
RRIRRRPPRLPRPRPRPIRKPRP	-0.0416
RRIRMRPPRLPRPRPRPKWTPRP	0.0304
RRIRFRPPRLPRPRPRPKVRPRP	-0.022
RRIRPRPPRLPRPRPRPLNIPRP	-0.809
RRIRTRPPRLPRPRPRPCFVPRP	-0.454
RRIRNRPPRLPRPRPRPNRFPRP	0.0252
RRIRTRPPRLPRPRPRPRQWPRP	-0.054
RRIRKRPPRLPRPRPRPEAVPRP	0.15
RRIRQRPPRLPRPRPRPEKDPRP	0.343
RRIRKRPPRLPRPRPRPWHYPRP	0.0725
RRIRMRPPRLPRPRPRPDYHPRP	-0.457
RRIRWRPPRLPRPRPRPHRRPRP	-0.0988

Sequence	shrunken log2 fold change
RRIRERPPRLPRPRPRPFQCPRP	-0.018
RRIRDRPPRLPRPRPRPYNAPRP	-0.0556
RRIRLRPPRLPRPRPRPQSGPRP	-0.0923
RRIRFRPPRLPRPRPRPWEWPRP	0.0781
RRIRPRPPRLPRPRPRPAECPRP	-0.223
RRIRGRPPRLPRPRPRPPCYPRP	0.265
RRIRHRPPRLPRPRPRPILGPRP	-0.0179
RRIRVRPPRLPRPRPRPESTPRP	0.108
RRIRERPPRLPRPRPRPHSEPRP	-0.148
RRIRERPPRLPRPRPRPDDNPRP	0.0486
RRIRNRPPRLPRPRPRPKYAPRP	-0.292
RRIRIRPPRLPRPRPRPVGPPRP	0.0747
RRIRMRPPRLPRPRPRPCMGPRP	-0.28
RRIRIRPPRLPRPRPRPMDHPRP	-0.0898
RRIRNRPPRLPRPRPRPMMPPRP	-0.0635
RRIRSRPPRLPRPRPRPATMPRP	0.00669
RRIRRRPPRLPRPRPRPWDYPRP	0.0184
RRIRLRPPRLPRPRPRPENQPRP	-0.0987
RRIRKRPPRLPRPRPRPILQPRP	0.0319
RRIRHRPPRLPRPRPRPMWTPRP	-0.126
RRIRPRPPRLPRPRPRPDSAPRP	-0.18
RRIRARPPRLPRPRPRPISEPRP	0.0696
RRIRIRPPRLPRPRPRPLHTPRP	-0.456
RRIRFRPPRLPRPRPRPLPHPRP	-0.0994
RRIRERPPRLPRPRPRPFWWPRP	0.239
